From patent US20250002601A1 (INNATE PHARMA, published 2025)

T1: HuCD122-His (human, UniProt P14784 27-239)
T1 construct: Captured on an anti-His CM5 chip; also called interleukin 2 receptor beta; IL2RP
T1 sequence (looked up): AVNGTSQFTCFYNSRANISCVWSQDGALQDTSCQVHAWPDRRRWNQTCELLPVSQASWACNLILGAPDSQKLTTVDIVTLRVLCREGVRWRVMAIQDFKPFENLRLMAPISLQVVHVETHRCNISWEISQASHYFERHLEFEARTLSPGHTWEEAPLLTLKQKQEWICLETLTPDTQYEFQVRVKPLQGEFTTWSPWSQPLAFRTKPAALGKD


Assays:
[1] = biological target: IL-2 receptor on cells of human PBMC (NK cells, CD4 T cells, CD8 T cells, Tregs); experiment: cell-based or functional assay
HuCD122-His = biological target: T1, HuCD122-His; experiment: SPR (Biacore), HuCD122-His captured on anti-His CM5 chip, analyte 31.25 nM to 1 µM, steady-state fit
Method: Briefly, a biacore instrument was used with a CM5 chip comprising an immobilized anti-His antibody. Ligand HuCD122-His was injected at a dilution of […] to be captured on the chip. Proteins CD20-2-T5A-NKCE4-v2, CD20-2-T6AB3-NKCE4-v2A, CD20-2-T13A-NKCE4-v2A was then injected during 120 s with a flow of 10 μL/min, at a concentrations range from 31.25 nM to 1 μM. The interaction between these proteins and HuCD122-His was studied with a dissociation time of 600 s. The chip was then regenerated with NaOH 10 mM at a flow of 40 μL/min during 10 sec.
Date has been analysed under the steady-state model, that seemed to be the most accurate regarding sensograms appearance.

Binder | % of pSTAT5+ cells among NK cells [1] [log] | Kd (HuCD122-His) [nM]
CD20-1-T5-NKCE4-v3 (bispecific antibody) light: not shown heavy: not shown DIQMTQSPSSLSASVGDRVTITCRASQDISNYLNWYQQKPGKAPKLLIYYTSRLHSGVPSRFSGSGSGTDFTFTISSLQPEDIATYFCQQGNTRPWTFGGGTKVEIKASTKGPSVFPLAPSSKSTSGGTAALGCLVKDYFPEPVTVSWNSGALTSGVHTFPAVLQSSGLYSLSSVVTVPSSSLGTQTYICNVNHKPSNTKVDKRVEPKSCDKTHSGSSSSGSSSSGSSSSTKKTQLQLEHLLLDLQMILNGINNYKNPKLTAMLAKKFYMPKKATELKHLQCLEEELKPLEEVLNLAQSKNFHLRPRDLISNINVIVLELKGSETTFMCEYADETATIVEFLNRWITFCQSIISTLT | ~1 | 
CD20-2-T5-NKCE4-v3 (bispecific antibody) light: not shown heavy: not shown DIQMTQSPSSLSASVGDRVTITCRASQDISNYLNWYQQKPGKAPKLLIYYTSRLHSGVPSRFSGSGSGTDFTFTISSLQPEDIATYFCQQGNTRPWTFGGGTKVEIKASTKGPSVFPLAPSSKSTSGGTAALGCLVKDYFPEPVTVSWNSGALTSGVHTFPAVLQSSGLYSLSSVVTVPSSSLGTQTYICNVNHKPSNTKVDKRVEPKSCDKTHSGSSSSGSSSSGSSSSTKKTQLQLEHLLLDLQMILNGINNYKNPKLTAMLAKKFYMPKKATELKHLQCLEEELKPLEEVLNLAQSKNFHLRPRDLISNINVIVLELKGSETTFMCEYADETATIVEFLNRWITFCQSIISTLT | ~1 | 
CD20-2-T5A-NKCE4-v2 (bispecific antibody, human IgG1, kappa) chain 1: not shown chain 2: not shown chain 3: DIQMTQSPSSLSASVGDRVTITCRASQDISNYLNWYQQKPGKAPKLLIYYTSRLHSGVPSRFSGSGSGTDFTFTISSLQPEDIATYFCQQGNTRPWTFGGGTKVEIKASTKGPSVFPLAPSSKSTSGGTAALGCLVKDYFPEPVTVSWNSGALTSGVHTFPAVLQSSGLYSLSSVVTVPSSSLGTQTYICNVNHKPSNTKVDKRVEPKSCDKTHSGSSSSGSSSSGSSSSTKKTQLQLEHLLLDLQMILNGINNYKNPKLTAMLAKKFYMPKKATELKHLQCLEEELKPLEEVLNLAQSKNFHLRPRDLISNINVIVLELKGSETTFMCEYADETATIVEFLNRWITFCQSIISTLT |  | 1810

Second part, the binder after the results:

% of pSTAT5+ cells among NK cells [1] [log] | Kd (HuCD122-His) [nM] | Binder
~1 |  | CD20-4-T5-NKCE4-v3 (bispecific antibody) light: not shown heavy: not shown DIQMTQSPSSLSASVGDRVTITCRASQDISNYLNWYQQKPGKAPKLLIYYTSRLHSGVPSRFSGSGSGTDFTFTISSLQPEDIATYFCQQGNTRPWTFGGGTKVEIKASTKGPSVFPLAPSSKSTSGGTAALGCLVKDYFPEPVTVSWNSGALTSGVHTFPAVLQSSGLYSLSSVVTVPSSSLGTQTYICNVNHKPSNTKVDKRVEPKSCDKTHSGSSSSGSSSSGSSSSTKKTQLQLEHLLLDLQMILNGINNYKNPKLTAMLAKKFYMPKKATELKHLQCLEEELKPLEEVLNLAQSKNFHLRPRDLISNINVIVLELKGSETTFMCEYADETATIVEFLNRWITFCQSIISTLT
~1 |  | CD20-3-T5-NKCE4-v3 (bispecific antibody) light: not shown heavy: not shown DIQMTQSPSSLSASVGDRVTITCRASQDISNYLNWYQQKPGKAPKLLIYYTSRLHSGVPSRFSGSGSGTDFTFTISSLQPEDIATYFCQQGNTRPWTFGGGTKVEIKASTKGPSVFPLAPSSKSTSGGTAALGCLVKDYFPEPVTVSWNSGALTSGVHTFPAVLQSSGLYSLSSVVTVPSSSLGTQTYICNVNHKPSNTKVDKRVEPKSCDKTHSGSSSSGSSSSGSSSSTKKTQLQLEHLLLDLQMILNGINNYKNPKLTAMLAKKFYMPKKATELKHLQCLEEELKPLEEVLNLAQSKNFHLRPRDLISNINVIVLELKGSETTFMCEYADETATIVEFLNRWITFCQSIISTLT
 | 2840 | CD20-2-T6AB3-NKCE4-v2A (bispecific antibody, human IgG1, kappa) chain 1: not shown chain 2: EVQLVESGGGLVQPDRSLRLSCAASGFTFHDYAMHWVRQAPGKGLEWVSTISWNSGTIGYADSVKGRFTISRDNAKNSLYLQMNSLRAEDTALYYCAKDIQYGNYYYGMDVWGQGTTVTVSSASTKGPSVFPLAPSSKSTSGGTAALGCLVKDYFPEPVTVSWNSGALTSGVHTFPAVLQSSGLYSLSSVVTVPSSSLGTQTYICNVNHKPSNTKVDKRVEPKSCDKTHTCPPCPAPEAEGAPSVFLFPPKPKDTLMISRTPEVTCVVVDVSHEDPEVKFNWYVDGVEVHNAKTKPREEQYNSTYRVVSVLTVLHQDWLNGKEYKCKVSNKALPSSIEKTISKAKGQPREPQVYTLPPSREEMTKNQVSLTCLVKGFYPSDIAVEWESNGQPENNYKTTPPVLDSDGSFFLYSKLTVDKSRWQQGNVFSCSVMHEALHNHYTQKSLSLSPGSTGSQVQLVQSGAEVKKPGSSVKVSCKASGYTFSDYVINWVRQAPGQGLEWMGEIYPGSGTNYYNEKFKAKATITADKSTSTAYMELSSLRSEDTAVYYCARRGRYGLYAMDYWGQGTTVTVSSRTVAAPSVFIFPPSDEQLKSGTASVVCLLNNFYPREAKVQWKVDNALQSGNSQESVTEQDSKDSTYSLSSTLTLSKADYEKHKVYACEVTHQGLSSPVTKSFNRGEC chain 3: DIQMTQSPSSLSASVGDRVTITCRASQDISNYLNWYQQKPGKAPKLLIYYTSRLHSGVPSRFSGSGSGTDFTFTISSLQPEDIATYFCQQGNTRPWTFGGGTKVEIKASTKGPSVFPLAPSSKSTSGGTAALGCLVKDYFPEPVTVSWNSGALTSGVHTFPAVLQSSGLYSLSSVVTVPSSSLGTQTYICNVNHKPSNTKVDKRVEPKSCDKTHSGSSSSGSSSSGSSSSTKKTQLQLEHLLLDLQMILNGINNYKNPKLTAMLTKKFYMPKKATELKHLQCLEEELKPLEEVLNLAQSKNFHLRPRDLISNINVIVLELKGSETTFMCEYADETATIVEFLNRWITFAQSIISTLT
